For eight sequences, phosphorylation enrichment and SH2 binding enrichment results are on record in the supplement of paper PMC10065799, “High-throughput profiling of sequence recognition by tyrosine kinases and SH2 domains using bacterial peptide display” (eLife, 2023).

Data set [1] concerns the target Hck (UniProt P08631). Briefly: phosphorylation enrichment, bacterial display (enrichment ratio); higher = better substrate or ligand; peptides without Tyr show the background.
In data set [2] the target is FGFR3 (UniProt P22607). The data set is described as above.
Sequence of FGFR3 (P22607 whole entry, looked up): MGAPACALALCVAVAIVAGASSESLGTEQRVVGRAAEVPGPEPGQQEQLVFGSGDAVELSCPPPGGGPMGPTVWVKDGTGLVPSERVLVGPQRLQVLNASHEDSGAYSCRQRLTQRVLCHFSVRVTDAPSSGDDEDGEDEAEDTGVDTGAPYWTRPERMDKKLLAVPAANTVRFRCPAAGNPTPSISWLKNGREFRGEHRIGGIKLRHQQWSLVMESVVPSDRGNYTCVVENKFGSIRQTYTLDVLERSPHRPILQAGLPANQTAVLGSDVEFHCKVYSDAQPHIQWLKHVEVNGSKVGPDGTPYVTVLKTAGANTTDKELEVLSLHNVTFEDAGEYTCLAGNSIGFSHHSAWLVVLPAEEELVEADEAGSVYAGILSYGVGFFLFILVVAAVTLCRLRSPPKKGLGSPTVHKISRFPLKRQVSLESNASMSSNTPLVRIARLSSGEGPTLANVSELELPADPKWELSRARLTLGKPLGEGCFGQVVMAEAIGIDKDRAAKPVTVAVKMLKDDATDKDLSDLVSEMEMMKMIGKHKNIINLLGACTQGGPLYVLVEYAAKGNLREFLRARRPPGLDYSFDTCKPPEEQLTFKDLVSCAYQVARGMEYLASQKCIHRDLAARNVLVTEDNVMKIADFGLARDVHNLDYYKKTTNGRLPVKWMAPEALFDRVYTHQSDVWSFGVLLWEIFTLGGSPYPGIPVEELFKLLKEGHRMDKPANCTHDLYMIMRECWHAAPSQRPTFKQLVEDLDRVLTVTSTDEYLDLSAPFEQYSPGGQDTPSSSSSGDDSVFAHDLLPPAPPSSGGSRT
The target of data set [3] is Jak2 (UniProt O60674). Described as above.
Sequence of Jak2 (O60674 whole entry, looked up): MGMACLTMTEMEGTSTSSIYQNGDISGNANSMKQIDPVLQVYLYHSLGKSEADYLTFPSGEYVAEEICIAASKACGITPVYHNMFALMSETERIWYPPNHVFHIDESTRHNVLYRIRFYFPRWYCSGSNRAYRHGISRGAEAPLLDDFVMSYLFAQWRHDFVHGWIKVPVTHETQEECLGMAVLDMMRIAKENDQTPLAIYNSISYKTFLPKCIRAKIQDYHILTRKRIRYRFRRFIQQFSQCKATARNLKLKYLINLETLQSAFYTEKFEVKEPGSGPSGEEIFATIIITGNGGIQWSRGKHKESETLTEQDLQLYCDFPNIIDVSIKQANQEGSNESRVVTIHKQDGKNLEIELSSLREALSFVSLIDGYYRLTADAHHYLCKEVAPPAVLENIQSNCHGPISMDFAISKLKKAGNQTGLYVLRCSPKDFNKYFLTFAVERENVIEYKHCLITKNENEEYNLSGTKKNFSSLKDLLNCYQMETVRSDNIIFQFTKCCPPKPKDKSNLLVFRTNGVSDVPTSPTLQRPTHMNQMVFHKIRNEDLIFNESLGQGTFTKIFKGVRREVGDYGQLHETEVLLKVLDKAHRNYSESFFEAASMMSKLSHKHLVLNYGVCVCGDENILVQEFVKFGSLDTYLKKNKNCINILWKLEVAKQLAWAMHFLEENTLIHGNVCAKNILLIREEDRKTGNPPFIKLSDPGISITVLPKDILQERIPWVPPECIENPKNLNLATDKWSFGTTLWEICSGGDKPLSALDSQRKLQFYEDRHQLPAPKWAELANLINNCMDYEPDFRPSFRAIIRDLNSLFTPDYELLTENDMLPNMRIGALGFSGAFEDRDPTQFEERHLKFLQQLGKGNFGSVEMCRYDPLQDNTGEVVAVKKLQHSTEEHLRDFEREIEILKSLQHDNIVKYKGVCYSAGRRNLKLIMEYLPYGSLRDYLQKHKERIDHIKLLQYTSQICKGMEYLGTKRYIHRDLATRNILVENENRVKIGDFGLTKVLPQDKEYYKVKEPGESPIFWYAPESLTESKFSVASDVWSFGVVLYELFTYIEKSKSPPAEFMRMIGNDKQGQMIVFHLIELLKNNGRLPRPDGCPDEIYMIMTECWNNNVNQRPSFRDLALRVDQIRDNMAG
Data set [4] concerns the target Fyn (UniProt P06241). Described as above.
For data set [5], the system named is AncSZ. The description is as above.
Data set [6] addresses MERTK (UniProt Q12866). The data set is described as above.
The target of data set [7] is FGFR1 (UniProt P11362). The description is as above.
Data set [8] deals with EPHB2 (UniProt P29323). The description is as above.
In data set [9] the target is EPHB1 (UniProt P54762). The data set is described as above.
Sequence of EPHB1 (P54762 whole entry, looked up): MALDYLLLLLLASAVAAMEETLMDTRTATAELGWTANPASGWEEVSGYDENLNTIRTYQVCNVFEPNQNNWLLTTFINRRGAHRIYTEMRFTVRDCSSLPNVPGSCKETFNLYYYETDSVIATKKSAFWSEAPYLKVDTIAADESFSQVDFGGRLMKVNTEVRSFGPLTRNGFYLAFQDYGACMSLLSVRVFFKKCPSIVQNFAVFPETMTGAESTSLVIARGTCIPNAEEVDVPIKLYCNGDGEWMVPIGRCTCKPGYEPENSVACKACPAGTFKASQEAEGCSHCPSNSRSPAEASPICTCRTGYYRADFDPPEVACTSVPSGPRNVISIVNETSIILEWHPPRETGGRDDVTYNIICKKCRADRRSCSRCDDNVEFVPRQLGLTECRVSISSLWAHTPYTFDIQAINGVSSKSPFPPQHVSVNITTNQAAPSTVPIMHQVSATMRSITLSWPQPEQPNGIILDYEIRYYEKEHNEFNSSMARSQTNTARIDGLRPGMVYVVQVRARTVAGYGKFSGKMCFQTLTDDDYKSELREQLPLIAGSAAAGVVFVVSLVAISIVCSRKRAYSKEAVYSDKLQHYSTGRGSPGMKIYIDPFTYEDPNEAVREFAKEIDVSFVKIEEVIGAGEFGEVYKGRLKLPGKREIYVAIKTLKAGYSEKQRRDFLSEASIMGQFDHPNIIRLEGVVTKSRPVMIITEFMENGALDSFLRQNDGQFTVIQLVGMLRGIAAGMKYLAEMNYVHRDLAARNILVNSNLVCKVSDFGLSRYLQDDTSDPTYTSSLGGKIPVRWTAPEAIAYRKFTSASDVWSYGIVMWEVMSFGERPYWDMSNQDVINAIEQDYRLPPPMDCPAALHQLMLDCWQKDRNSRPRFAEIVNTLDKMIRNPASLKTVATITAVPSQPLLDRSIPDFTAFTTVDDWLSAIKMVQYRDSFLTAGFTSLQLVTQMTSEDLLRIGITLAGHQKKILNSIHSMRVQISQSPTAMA
The subject of data set [10] is Fer (mouse). The description is as above.
The subject of data set [11] is c-Src. The data set is described as above.
In data set [12] the target is Fes (UniProt P07332). Described as above.
Data set [13] relates to c-Abl (mouse). The data set is described as above.
The target of data set [14] is c-Src SH2. Description: SH2 binding enrichment of the phosphorylated peptide, bacterial display (enrichment ratio); higher = better substrate or ligand; peptides without Tyr show the background.
Data set [15] deals with Grb2 SH2 (UniProt P62993). The data set is described as above.
Sequence of Grb2 SH2 (P62993 whole entry, looked up): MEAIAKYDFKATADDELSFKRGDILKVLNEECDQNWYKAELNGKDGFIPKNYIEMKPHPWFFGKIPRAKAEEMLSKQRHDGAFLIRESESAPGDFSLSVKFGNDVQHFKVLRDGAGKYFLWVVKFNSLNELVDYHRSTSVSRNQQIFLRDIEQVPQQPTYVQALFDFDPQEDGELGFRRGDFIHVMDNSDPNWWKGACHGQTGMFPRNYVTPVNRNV
Data set [16] concerns the target SHP2-C SH2. Described as above.
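Wherever SH2 binding enrichment of the phosphorylated peptide, bacterial display is given: peptide library displayed on the E. coli surface as eCPX fusions, selected cells deep-sequenced, score is each peptide's frequency after selection divided by its frequency in the input.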
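Wherever phosphorylation enrichment, bacterial display is given: 11-residue human phosphosite peptides and single-mutation variants displayed on the E. coli surface, counted by deep sequencing, each peptide's frequency after selection divided by its frequency in the unselected input library; frequency after pTyr selection over input frequency; kinase dosed for 20-30% of maximal phosphorylation in three min.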

Sequence of MERTK (Q12866 whole entry, looked up): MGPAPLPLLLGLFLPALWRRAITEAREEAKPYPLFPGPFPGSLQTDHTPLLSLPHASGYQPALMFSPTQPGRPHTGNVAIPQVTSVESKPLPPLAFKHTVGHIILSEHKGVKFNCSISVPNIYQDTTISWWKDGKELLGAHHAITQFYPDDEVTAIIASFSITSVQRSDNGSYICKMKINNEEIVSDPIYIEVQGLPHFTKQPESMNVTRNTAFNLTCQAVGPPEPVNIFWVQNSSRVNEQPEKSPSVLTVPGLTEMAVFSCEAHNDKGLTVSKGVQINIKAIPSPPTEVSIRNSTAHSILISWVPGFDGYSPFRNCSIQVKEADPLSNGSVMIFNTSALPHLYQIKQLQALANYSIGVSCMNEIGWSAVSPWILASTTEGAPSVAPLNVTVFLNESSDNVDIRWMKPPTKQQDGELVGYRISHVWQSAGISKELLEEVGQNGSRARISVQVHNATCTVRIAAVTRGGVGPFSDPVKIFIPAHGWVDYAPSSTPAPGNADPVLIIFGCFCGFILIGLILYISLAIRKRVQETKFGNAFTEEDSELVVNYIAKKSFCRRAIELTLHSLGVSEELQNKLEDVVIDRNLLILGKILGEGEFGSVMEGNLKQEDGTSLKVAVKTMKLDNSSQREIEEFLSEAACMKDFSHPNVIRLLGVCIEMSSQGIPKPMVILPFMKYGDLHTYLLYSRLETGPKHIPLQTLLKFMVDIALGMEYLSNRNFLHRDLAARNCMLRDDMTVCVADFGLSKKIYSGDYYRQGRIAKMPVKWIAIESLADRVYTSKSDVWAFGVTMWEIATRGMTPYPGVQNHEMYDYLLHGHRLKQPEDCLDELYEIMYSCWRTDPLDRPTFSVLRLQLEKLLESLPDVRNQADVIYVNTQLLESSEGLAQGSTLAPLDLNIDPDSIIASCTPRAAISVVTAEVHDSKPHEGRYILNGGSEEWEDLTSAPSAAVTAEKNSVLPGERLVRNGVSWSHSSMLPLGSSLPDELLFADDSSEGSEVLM
Sequence of Fyn (P06241 whole entry, looked up): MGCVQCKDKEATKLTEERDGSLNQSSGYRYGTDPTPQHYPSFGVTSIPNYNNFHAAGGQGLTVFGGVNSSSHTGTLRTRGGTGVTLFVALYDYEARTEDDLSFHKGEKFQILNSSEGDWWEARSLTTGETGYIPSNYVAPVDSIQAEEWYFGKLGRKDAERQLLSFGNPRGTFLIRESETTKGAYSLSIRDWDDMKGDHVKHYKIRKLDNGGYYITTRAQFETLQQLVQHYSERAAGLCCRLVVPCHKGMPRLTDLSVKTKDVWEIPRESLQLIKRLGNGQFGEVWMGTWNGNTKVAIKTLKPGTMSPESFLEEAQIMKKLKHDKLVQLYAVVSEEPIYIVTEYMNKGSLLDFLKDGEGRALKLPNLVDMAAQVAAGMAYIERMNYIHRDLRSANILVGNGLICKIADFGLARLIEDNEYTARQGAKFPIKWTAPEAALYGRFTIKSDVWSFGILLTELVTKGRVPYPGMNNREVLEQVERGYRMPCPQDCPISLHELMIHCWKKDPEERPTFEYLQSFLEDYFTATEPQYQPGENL

With EAESWYQTKYE [KRT75_Y342], the phosphorylation enrichment in [1] worked out at 0.545; in data set [2], 0.752; in data set [3] it was 1.07; in data set [4] it was 0.546; in [5] it was 1.15; in data set [6], 0.505. The phosphorylation enrichment in data set [7] stood at 0.491; in data set [8], 0.655; in [9], 0.641; in data set [10], 0.505; in data set [11] it was 0.62; in [12], 1.21. In addition, in data set [13], the phosphorylation enrichment is 0.686. The results for the SH2 binding enrichment in data set [14], in data set [15] and in data set [16] were 0.547, 0.858 and 0.437, respectively.
ERMKVYVPIGF [EPHX1_Y393_T396I]: the phosphorylation enrichment in data set [1] was 0.622; in data set [2] it was 0.538; in data set [3], 0.597; in data set [4], 1.13; in [5], 0.67; in [6], 0.478. The phosphorylation enrichment in [7] was 0.412; in data set [8] it was 0.497; in data set [9] it was 0.623; in data set [10] it was 0.425; in data set [11], 0.907; in [12], 0.742. Further, in data set [13], the phosphorylation enrichment was determined as 0.543. In addition, the values for the SH2 binding enrichment in data set [14], in [15] and in [16] were 0.556, 0.76 and 0.909, respectively.
Take GAAMLYYPSVS [GPR143_Y177]: the phosphorylation enrichment in data set [1] came to 1.46; in data set [2], 3.51; in data set [3], 2.6; in [4] it was 0.747; in [5] it was 0.763; in data set [6], 4.88. The phosphorylation enrichment was found to be 4.07 in [7]; 1.66 in data set [8]; 1.5 in [9]; 0.63 in data set [10]; 1.11 in [11]; 0.783 in [12]. In addition, in [13], the phosphorylation enrichment worked out at 0.941. The SH2 binding enrichment in data set [14] amounted to 0.765; in data set [15], 0.776; in data set [16], 0.608.
For the sequence KLPDAYEPLIL [G6PD_Y437_R439P], the phosphorylation enrichment turned out to be 1.08 in data set [1]; 0.674 in data set [2]; 0.921 in data set [3]; 0.502 in data set [4]; 1.14 in data set [5]; 0.498 in data set [6]. The phosphorylation enrichment in [7] came out at 0.53; in data set [8], 0.494; in data set [9] it was 0.55; in data set [10] it was 2.5; in [11] it was 0.752; in [12], 1.1. Besides, the phosphorylation enrichment in data set [13] was 0.79. The values for the SH2 binding enrichment in [14], in data set [15] and in [16] were 1.49, 0.964 and 0.917, respectively.
As for LADKPYTFEFF [FXN_Y118_D122Y_YF], the phosphorylation enrichment came out at 0.644 in data set [1]; 0.952 in data set [2]; 1.58 in data set [3]; 1.47 in data set [4]; 1.78 in [5]; 1.22 in data set [6]. Moreover, the phosphorylation enrichment in [7] amounted to 0.649; in [8], 0.683; in data set [9], 0.764; in [10] it was 1.25; in data set [11], 2.87; in [12], 1.82. The phosphorylation enrichment in [13] is 1.19. In addition, the SH2 binding enrichment in [14] is 0.675; in [15], 0.742; in data set [16], 0.719.
Turning to LYSINYLHFGE [KDM4C_Y201], the phosphorylation enrichment in [1] was 3.5; in [2] it was 3.52; in data set [3] it was 1.1; in [4], 3.5; in data set [5], 2.05; in [6], 11. Moreover, the phosphorylation enrichment in data set [7] was determined as 3.6; in [8] it was 9.01; in data set [9], 10.7; in data set [10], 11.1; in [11] it was 2.56; in data set [12], 1.57. Besides, in [13], the phosphorylation enrichment turned out to be 2.08. Besides, the SH2 binding enrichment amounted to 1.31 in data set [14], 1.54 in [15] and 2.6 in [16].
For RGEKQYLAAPL [ALOX12_Y295], the phosphorylation enrichment in data set [1] amounted to 0.545; in data set [2], 0.341; in [3] it was 0.523; in data set [4] it was 0.436; in [5], 0.777; in data set [6], 0.377. Besides, the phosphorylation enrichment in data set [7] came out at 0.754; in [8], 0.461; in data set [9] it was 0.402; in data set [10] it was 0.365; in data set [11], 0.505; in data set [12] it was 0.416. Further, the phosphorylation enrichment in data set [13] came out at 0.504. Besides, the SH2 binding enrichment in data set [14] came to 0.409; in data set [15], 0.709; in data set [16], 0.431.
For KGTAGYTTVAV [RET_Y752_R749T], the phosphorylation enrichment amounted to 0.357 in data set [1]; 0.34 in [2]; 0.398 in data set [3]; 0.359 in [4]; 0.517 in data set [5]; 0.349 in data set [6]. For the same sequence, the phosphorylation enrichment in data set [7] worked out at 0.327; in data set [8] it was 0.362; in [9], 0.46; in data set [10], 0.313; in data set [11], 0.37; in data set [12], 0.493. Further, the phosphorylation enrichment in data set [13] stood at 0.448. Further, the SH2 binding enrichment in data set [14] was determined as 1.99; in data set [15] it was 0.757; in data set [16] it was 2.15.
